From US20170165337A1 (IMMATICS BIOTECHNOLOGIES, published 2017) come the findings set out here.

For the assay, the target named is T1, HLA-A*02:01 (human).
T1 construct: MHC class I monomer of the UV-ligand exchange assay; also called peptide-receptive MHC molecules; MHC class I
Put plainly: UV peptide-exchange ELISA. The text has this:
Candidate peptides for T cell based therapies according to the present invention were further tested for their MHC binding capacity (affinity). The individual peptide-MHC complexes were produced by UV-ligand exchange, where a UV-sensitive peptide is cleaved upon UV-irradiation, and exchanged with the peptide of interest as analyzed. Only peptide candidates that can effectively bind and stabilize the peptide-receptive MHC molecules prevent dissociation of the MHC complexes. To determine the yield of the exchange reaction, an ELISA was performed based on the detection of the light chain (β2m) of stabilized MHC complexes. The assay was performed as generally described in Rodenko et al. (Rodenko et al., 2006).
96 well MAXISorp plates (NUNC) were coated over night with 2 ug/ml streptavidin in PBS at room temperature, washed 4× and blocked forl h at 37° C. in 2% BSA containing blocking buffer. Refolded HLA-A*02:01/MLA-001 monomers served as standards, covering the range of 15-500 ng/ml. Peptide-MHC monomers of the UV-exchange reaction were diluted 100 fold in blocking buffer. Samples were incubated for 1 h at 37° C., washed four times, incubated with 2 ug/ml HRP conjugated anti-β2m for 1 h at 37° C., washed again and detected with TMB solution that is stopped with […]. Absorption was measured at 450 nm. Candidate peptides that show a high exchange yield (preferably higher than 50%, most preferred higher than 75%) are generally preferred for a generation and production of antibodies or fragments thereof, and/or T cell receptors or fragments thereof, as they show sufficient avidity to the MHC molecules and prevent dissociation of the MHC complexes.
For orientation: In an ELISA, binding on a coated surface is turned into a signal by an enzyme label.

B1: YMFEEVPIVI (peptide)
peptide: YMFEEVPIVI
In turn, B1 returned a peptide exchange yield of at least 75%.

B2: KLLVQDFFL (peptide)
peptide: KLLVQDFFL
B2 gave a peptide exchange yield of 50 to 75%.

B3: GLLQINDKIAL (peptide)
peptide: GLLQINDKIAL
Consider B3, for which the peptide exchange yield lay in the range of 50 to 75%.

B4: SMDDGMINV (peptide)
peptide: SMDDGMINV
For the molecule B4, the peptide exchange yield lay in the range of 50 to 75%.

B5: VVMGTVPRL (peptide)
peptide: VVMGTVPRL
B5 displayed a peptide exchange yield of 50 to 75%.

B6: TLYDMLASI (peptide)
peptide: TLYDMLASI
As to B6, the peptide exchange yield was in the range of 50 to 75%.

B7: HMQDVRVLL (peptide)
peptide: HMQDVRVLL
In turn, B7 gave a peptide exchange yield of 50 to 75%.

B8: VLMPTVYQQGV (peptide)
peptide: VLMPTVYQQGV
B8 came in with a peptide exchange yield of 50 to 75%.

B9: YLVELSSLL (peptide)
peptide: YLVELSSLL
For B9, the peptide exchange yield was at least 75%.

B10: SQLDISEPYKV (peptide)
peptide: SQLDISEPYKV
Turning to B10, the peptide exchange yield was 50 to 75%.

B11: VLDDRELLL (peptide)
peptide: VLDDRELLL
In the case of B11, the peptide exchange yield was 50 to 75%.

B12: SVHKGFAFV (peptide)
peptide: SVHKGFAFV
The molecule B12 showed a peptide exchange yield of 50 to 75%.

B13: VMDPTKILI (peptide)
peptide: VMDPTKILI
B13 gave a peptide exchange yield of at least 75%.

B14: VLAELPIIVV (peptide)
peptide: VLAELPIIVV
Take B14: the peptide exchange yield lay in the range of 50 to 75%.

B15: VMDDQRDLI (peptide)
peptide: VMDDQRDLI
Regarding B15, the peptide exchange yield lay in the range of 20 to 50%.

B16: YVDDVFLRV (peptide)
peptide: YVDDVFLRV
For B16, the peptide exchange yield is at least 75%.

B17: FTVPRVVAV (peptide)
peptide: FTVPRVVAV
B17 came in with a peptide exchange yield of 50 to 75%.

B18: YQLELHGIEL (peptide)
peptide: YQLELHGIEL
As to B18, the peptide exchange yield was at least 75%.

B19: ALHRPDVYL (peptide)
peptide: ALHRPDVYL
B19 returned a peptide exchange yield of 50 to 75%.

B20: YLLLQTYVL (peptide)
peptide: YLLLQTYVL
Consider B20, for which the peptide exchange yield fell in the range of 10 to 20%.

B21: SLQEEKLIYV (peptide)
peptide: SLQEEKLIYV
For the molecule B21, the peptide exchange yield lay within 50 to 75%.

B22: VLLSVPGPPV (peptide)
peptide: VLLSVPGPPV
The molecule B22 had a peptide exchange yield of 50 to 75%.

B23: RLQELTEKL (peptide)
peptide: RLQELTEKL
Consider B23, for which the peptide exchange yield lay in the range of 50 to 75%.

B24: SMKDDLENV (peptide)
peptide: SMKDDLENV
Molecule B24 had a peptide exchange yield of 20 to 50%.

B25: YLQEVPILTL (peptide)
peptide: YLQEVPILTL
On to B25, for which the peptide exchange yield is at least 75%.

B26: YIFDGSDGGV (peptide)
peptide: YIFDGSDGGV
Molecule B26 yielded a peptide exchange yield of 50 to 75%.

B27: VMDTHLVNI (peptide)
peptide: VMDTHLVNI
B27 displayed a peptide exchange yield of at least 75%.

B28: ALTKTNLQL (peptide)
peptide: ALTKTNLQL
With B28, the peptide exchange yield lay in the range of 50 to 75%.

B29: ALPGGAAVAAV (peptide)
peptide: ALPGGAAVAAV
Molecule B29 registered a peptide exchange yield of at least 75%.

B30: VMLEMTPEL (peptide)
peptide: VMLEMTPEL
On to B30, for which the peptide exchange yield fell in the range of 50 to 75%.

B31: ALVDPGPDFVV (peptide)
peptide: ALVDPGPDFVV
On to B31, for which the peptide exchange yield is 50 to 75%.

B32: YLLDQSFVM (peptide)
peptide: YLLDQSFVM
The molecule B32 had a peptide exchange yield of at least 75%.

B33: ALLSSQLAL (peptide)
peptide: ALLSSQLAL
For B33, the peptide exchange yield lay within 50 to 75%.

B34: YLTFLPAEV (peptide)
peptide: YLTFLPAEV
Molecule B34 displayed a peptide exchange yield of 50 to 75%.

B35: VLSHNLYTV (peptide)
peptide: VLSHNLYTV
In turn, B35 gave a peptide exchange yield of 50 to 75%.

B36: VLLSIPFVSV (peptide)
peptide: VLLSIPFVSV
In turn, B36 registered a peptide exchange yield of 50 to 75%.

B37: YLDNVLAEL (peptide)
peptide: YLDNVLAEL
Turning to B37, the peptide exchange yield is at least 75%.

B38: VLFFNVQEV (peptide)
peptide: VLFFNVQEV
Take B38: the peptide exchange yield was in the range of 50 to 75%.

B39: TLVPPAALISI (peptide)
peptide: TLVPPAALISI
With B39, the peptide exchange yield is 50 to 75%.

B40: TLLLGLTEV (peptide)
peptide: TLLLGLTEV
Molecule B40 came in with a peptide exchange yield of 50 to 75%.

B41: VMGDIPAAV (peptide)
peptide: VMGDIPAAV
Consider B41, for which the peptide exchange yield was 20 to 50%.

B42: YIQEYLTLL (peptide)
peptide: YIQEYLTLL
Turning to B42, the peptide exchange yield was in the range of 50 to 75%.

B43: TLDTSKLYV (peptide)
peptide: TLDTSKLYV
In the case of B43, the peptide exchange yield was in the range of 50 to 75%.

B44: SLPEAPLDV (peptide)
peptide: SLPEAPLDV
B44 showed a peptide exchange yield of 50 to 75%.

B45: TLDPNQVSL (peptide)
peptide: TLDPNQVSL
Molecule B45 yielded a peptide exchange yield of 20 to 50%.

B46: VLLGLEMTL (peptide)
peptide: VLLGLEMTL
In turn, B46 gave a peptide exchange yield of 50 to 75%.

B47: GLSQANFTL (peptide)
peptide: GLSQANFTL
B47 gave a peptide exchange yield of 50 to 75%.

B48: ILQAELPSL (peptide)
peptide: ILQAELPSL
For B48, the peptide exchange yield fell in the range of 50 to 75%.

B49: TLDDDLDTV (peptide)
peptide: TLDDDLDTV
B49 had a peptide exchange yield of 20 to 50%.

B50: ILLKTEGINL (peptide)
peptide: ILLKTEGINL
As to B50, the peptide exchange yield lay within 50 to 75%.

B51: TLTFRVETV (peptide)
peptide: TLTFRVETV
For B51, the peptide exchange yield is 50 to 75%.

B52: YLGGFALSV (peptide)
peptide: YLGGFALSV
Molecule B52 registered a peptide exchange yield of at least 75%.

B53: QVMEKLAAV (peptide)
peptide: QVMEKLAAV
The molecule B53 gave a peptide exchange yield of 50 to 75%.

B54: YLDLSNNRL (peptide)
peptide: YLDLSNNRL
In turn, B54 showed a peptide exchange yield of 50 to 75%.

B55: IIADLDTTIMFA (peptide)
peptide: IIADLDTTIMFA
Molecule B55 displayed a peptide exchange yield of 50 to 75%.

B56: LIDVKPLGV (peptide)
peptide: LIDVKPLGV
The molecule B56 had a peptide exchange yield of 50 to 75%.

B57: VLAEQNIIPSA (peptide)
peptide: VLAEQNIIPSA
Take B57: the peptide exchange yield fell in the range of 50 to 75%.

B58: TVIENIHTI (peptide)
peptide: TVIENIHTI
With B58, the peptide exchange yield was in the range of 20 to 50%.

B59: LLKDGPEIGL (peptide)
peptide: LLKDGPEIGL
Molecule B59 showed a peptide exchange yield of 20 to 50%.

B60: LLGEFSIKM (peptide)
peptide: LLGEFSIKM
B60 had a peptide exchange yield of 50 to 75%.

B61: SLSFLVPSL (peptide)
peptide: SLSFLVPSL
For the molecule B61, the peptide exchange yield fell in the range of 50 to 75%.
